From the supplement of paper PMC9170038

Tested on: MS2 coat protein
Experiment: apparent KD of MS2 coat protein; higher = weaker reporter binding
Settings: Eterna round: R107
Description: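 RNA-MaP round R107: designed RNA switches with theophylline, tryptophan, arginine or FMN aptamers are transcribed on-chip within common flanks. They are titrated with SNAP-549-labelled MS2 coat protein in RNA-MaP buffer (100 mM Tris pH 7.5, 80 mM KCl, 4 mM MgCl2), without ligand or with the indicated ligand. Median apparent KD per design.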

[1] = input ligand: theophylline 20 uM
[2] = input ligand: theophylline 2 mM
[3] = input ligand: tryptophan 2.4 mM

Sequence	apparent KD of MS2 coat protein (input ligand: arginine 13.2 mM) [nM]	apparent KD of MS2 coat protein (input ligand: none) [nM]	apparent KD of MS2 coat protein [1] [nM]	apparent KD of MS2 coat protein [2] [nM]	apparent KD of MS2 coat protein [3] [nM]
AGCGGCUCGAAAGAGUCGCACUCAUGUGAAGGAGCGCCCGUAAGGGCAGGUAGGUCGCACAUGAGGAUCACCCAUGUACCUUCUA [MAT - Exclusion Arginine A - Mod of Eli - D20]	87.1	205	255	316	241
AGCUCGCAUCCUCAAAGCGUCAAAGACGCACGAGGACCGGUACGGCCGCCACUCGACCUGAGGAUCACCCUGGUCUAAGCGAGCA [TrypAX 9 #SwitchBubble #AlternativeMS2 #MS2Late #CuTurnoff]	29.7	36.2	49.2	48.8	381
AGCUCGCAUCCUCAAGCGUCAAAGACGCGUCGAGGACCGGUACGGCCGCCACUCGACAAGAGGAUCACCCUUGUCUAAGCGAGCA [TrypAX 4 #SwitchBubble #AlternativeMS2 #MS2Late #CuTurnoff]	73.3	195	182	264	254
AGUCUAUGGAGAGAUACCAGUGAGAGCCAUAGACAUGAGGAUCACCCAUGUGACAUGGAUCACCCUUGGCAGCUCAACGAGCUCU [#20 Same State - Theophylline B]	41	–	106	–	87.1
AGUUCCAGGUCGGCCGCCACUGGCGUGGCCGGUCCUCGGACUUACAUGAGGAUCACCCAUGUGAACAGGACCGGGACCGCAUGGG [Exclusion Tryptophan B GF 25]	30	–	46	48.4	–
AUAAAAGGGUUAUAUAGAUUUAGGUCCAGUCGAGGACCGGUACGGCCGCCACUCGUACUGAAAUACAUGAGGAUCACCCAUGUUA [JR_SSTryptoA_Sub006]	16.4	–	25.8	22.9	–
AUAACAUGAGGAUCACCCAUGUAAGCUGAAGGAGCGGACGAAAGUCCAGGUAGGUCGCAGCACUCCUUCAACAUGGGAGAGGGAG [(M1)-(M2)-(Arg1)-(Arg2)-(A)'-(M)'-(A)''_Design1]	39.9	64.2	59.8	72.5	53.2
AUAACAUGAGGAUCACCCAUGUAGAGUGAUACCAGACUACGUAAUGUCCCUUGGCAGCACAAGUAAAGUUACGAAUAUUGAUAGA [JR_SSTheophyA_Sub003]	123	–	198	–	143
AUAAGUAAUGUUACGUGUUUAAUUGCAGAUACCAGACUAUACGUUGUCCCUUGGCAGCUGAAUUACAUGAGGAUCACCCAUGUUG [JR_ExcTheophyA_Sub005]	19.4	–	28.5	–	25.7
AUAAUGGGUAUCGGAUUAUCAUGAUAUGAUACCAGAUACUUAGAUAUCCCUUGGCAGCAUGAGGACAUGAGGAUCACCCAUGUAU [#04 Exclusion-TheophyllineA]	32.1	–	50.3	–	39.9
AUACAUGAGGAUCACCCAUGUAUGGAUGAAGGAGCGACCAGAGGGUCAGGUAGGUCGCAUCACAUGAGGAUCACCCAUGUAGAAA [DOUBLE!!! :-D #11]	20.3	23.4	25.2	26.1	24
AUACAUGAGGAUCACCCAUGUCAUUCAGAAGGAGCGUCAUUUUAGACAGGUAGGUCGCUGUUAUUGGUAUUAUACUUUAUGUUUA [JR_ExcArginiA_Sub024]	20.1	22.9	34.9	24.7	28.9
AUACCUAUUGAGUCGUGUUUCUAUUCAGAUACCAGACUUUUCGUUGUCCCUUGGCAGCUGUUUUACAUGAGGAUCACCCAUGUUG [JR_ExcTheophyA_Sub006]	14.6	–	18.3	–	15
AUCCUUAAUAGGGUAAAUGGAUAAAGUGAUACCAGUCAAAUACAAGACCCUUGGCAGCACAAGGACAUGAGGAUCACCCAUGUCA [Same State Theophylline A GF21]	20.9	–	22	–	21.6
AUCGUACCUCAUGAUACCAGCAUGUGAUCAUAACAUGAGGAUCACCCAUGUAAUCAGUGAUGCCCUUGGCAGCGUAGUCGAUACA [Same State - Theophylline B (Freestyle 8)]	76.3	–	161	–	123
AUCGUACCUGAGGAUACCAGCAUGUGAUCAUAACAUGAGGAUCACCCAUGUAAUCAGUGAUGCCCUUGGCAGCUUGAUCGGUACA [Same State - Theophylline B (Freestyle 11)]	53.4	–	83.6	–	63.8
AUCGUACCUGAUGAUACCAGCAAUUGCUCGUGACAUGAGGAUCACCCAUGUGACCAGUGAUGCCCUUGGCAGCAUGGUCGGUGCA [Same State - Theophylline B (Freestyle 22)]	42.8	–	79.3	–	69.5
AUGACUAACAAAGAAGAUAAAAUGGGUGAACGAGGACCGGUACGGCCGCCACUCGGACAUGAGGAUCACCCAUGUCCAUGUGCAA [#23 Exclusion Tryptophan A]	15.6	–	21.7	20.4	–

Sequence	apparent KD of MS2 coat protein (input ligand: arginine 13.2 mM) [nM]	apparent KD of MS2 coat protein (input ligand: none) [nM]	apparent KD of MS2 coat protein [1] [nM]	apparent KD of MS2 coat protein [2] [nM]	apparent KD of MS2 coat protein [3] [nM]
AUGCGGUGCGGAAGGAGCGAGUUUGCCUAUUUACAUGAGGAUCACCCAUGUCCUAAUGGGACUCAGGUAGGUCGCCGUUGUCGCA [Same State Arginine B GF 29]	47.7	45.5	65.5	49.9	52.1
AUGCUUAUCAGAAGGAGCGUCAUUAACAUGAGGAUCACCCAUGUAACAUUGAAUUCGAUGAGACAGGUAGGUCGCUGAAUAGUAA [SS-ArgB27]	28	45.1	51.5	41.3	37.5
AUGCUUGUCAGAAGGAGCGUCUUUAACAUGAGGAUCACCCAUGUAUCAUGGAAUUUGAUGAGACAGGUAGGUCGCUGAAUAGUAA [JR_SSArginiB_Sub021]	30	29.8	42.7	34.5	25.7
AUGGACGACGAUCUGGGAAAACCAGAUCGACGAGGACCGGUACGGCCGCCACUCGUGUUUAUUUAACAUGAGGAUCACCCAUGUA [#13 Tryptophan A Same State]	34	–	55.7	65.5	–
AUGUCAUUGGUGUAGCUGUGAAGUGGCGAUACCAGCGUGGAAACACGCCCUUGGCAGCGCCAAAACAUGAGGAUCACCCAUGUUA [#23 Exclusion-TheophyllineA]	19	–	56.3	–	22.9
AUGUCCUAAACGGCCGCCACUUACAUGAGGAUCACCCAUGUUUACCGAUAUGGUUGUUGCUUUCCAAGGACCGGGUUUAAUCUGC [theeternabot_exclusion_MS2_Trp_B_49]	13.1	–	14.9	12.7	–
AUGUCGUUGAAUAUAGCGGCUUGGAGUGAUACCAGAAUGAUCUAAUUCCCUUGGCAGCAUUACAUGAGGAUCACCCAUGUUCCAG [SSTheo A #22]	27.8	–	57.4	–	55.5
AUUAACUGGUAAGAUACCAGAGUCGGGAUCUACAUGAGGAUCACCCAUGUUCUAAAGUCGCUCCCUUGGCAGCUUCAAUGAGUCG [theeternabot_sameState_MS2_Theo_B_27]	23.3	–	45.9	–	34
AUUAAUUGUCGUGAUACCAGACUUACAUGAGGAUCACCCAUGUUACUUAAGAUUUUUGUUGUCCCUUGGCAGCACUUUUUAAUUA [JR_Nu_ExcTheophyB_Sub024]	24.5	–	33	–	23.3
AUUCAGAGAUCACAUGAGGAUCACCCAUGUCGAGGACCGGUACGGCCGCCACUCGCGGCGGUGAAAAUAGAUACAAAGUAUCUAU [Ex_TrypA - Vienna approves #2]	25.5	50	61.8	45.9	284
AUUGCGAGUGAGUCGUGUAACGAUUCAGAUACCAGGCAUUUCGUUGUCCCUUGGCAGCUGUCUUACAUGAGGAUCACCCAUGUUA [#29 Exclusion-TheophyllineA]	23.8	–	54.8	–	56.3
CAAAAUAUAACGGCCGCCACUUACUCAUGAGGUAACAACAUGAGGAUCACCCAUGUUUGAGGAUCAAGGACCGGGUUAUAUUUUG [AstrosSSTry#21]	24.7	–	34.9	33	–
CAAACAUGAGGAUCACCCAUGUAAUCAGAUACCAGUGACGAAAGUCACCCUUGGCAGCUGAUUACUUUAGUUCUAAGGUGUUUGA [EThA NP+V+V2 #5 +-Same Structure]	53.6	–	116	–	38.7
CAAAUAGACCACGAUACCAGAACACAAGGAGUAAUAUCAAACAUGAGGAUCACCCAUGUCUUCCCUUGGCAGCGUAGCACGGAGU [theeternabot_exclusion_MS2_Theo_B_23]	13.5	–	15.2	–	11
CAAUAUAUAACGGCCGCCACUUACUCAUGAGGUAACAACAUGAGGAUCACCCAUGUUUGAGGAUCAAGGACCGGGUUAUAUAUUG [AstrosSSTry#19]	29.3	28	33	27.1	18.4
CAAUAUAUAUGAAGGAGCGACAUGAGGAUCACCCAUGUCUACCACGUCGAAAGACGCUCAUGUCAGGUAGGUCGCAUAUAUAUUG [Astros-Eli-mod4]	71.9	102	129	144	90.9
CACAUGAGGAUCACCCAUGUCUGAACUGAAGGAGCGCUAAACAAGGCAGGUAGGUCGCGGAAUCCCGUGUGCAUAUGCACACGGG [9.Z]	24.1	15.6	24.1	20.4	18.9
CACAUGAGGAUCACCCAUGUCUGAACUGAAGGAGCGCUAAACAAGGCAGGUAGGUCGCGGAAUUUUGUGUGCAUAUGCAUAUGGG [9.N]	21.6	24.5	36.3	26.9	24.8
